The text below walks through data of paper PMC11112747, “Cyanovirin-N Binding to N-Acetyl-D-glucosamine Requires Carbohydrate-Binding Sites on Two Different Protomers” (Biochemistry, 2024).

In assay [1] the target is T1, CVN2 (CVN2L0) (Nostoc ellipsosporum, UniProt P81180).
T1 construct: tandem-linked domain-swapped dimer of two CV-N, zero-linker length; His-tag
T1 sequence (P81180 1-101): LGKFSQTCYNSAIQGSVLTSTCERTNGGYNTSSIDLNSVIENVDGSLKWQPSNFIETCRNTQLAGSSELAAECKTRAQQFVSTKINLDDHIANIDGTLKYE
Briefly: Isothermal titration calorimetry, CVN2 titrated into ManNAc in the cell, PBS pH 7.4, 298 K, one-set of sites model. As to conditions: SEM, n = 3; read-out: affinity Kd. Format: binding. As to the method:
Calorimetric titrations were carried out using an ITC200 device (Malvern Panalytical, Malvern, UK). The concentration of mutant E41T dimer and monomeric variants CVN-E41T or CVN-E41A was 200 μM titrant of these proteins to the ligands ManNAc and GlcNAc in the cell. […] The protein concentrations were 44 μM (304 μM) CVN2L0 and 465 μM CVN-E41T in the ManNAc experiments, respectively, and determined to be between 200 and 300 μM for the GlcNAc experiment. Aliquots (2 μL) of CV-N titrant were injected at 2 min intervals into the sugar solution in the calorimetry cell with a total of 19 injections from a stirring syringe (operated at 750 rpm). […] The values for enthalpy, binding affinity, and stoichiometry from the binding curve and the free energy and entropy of interaction were calculated using Microcal Origin v7.0 (OriginLab, Northampton, Massachusetts, USA) according to the standard expressions: ΔG = −RTln Ka, and ΔG = ΔH–TΔS. […]
Specific carbohydrate–protein interactions with polar and charged residues were delineated from the solution structure with Manα1 → 2Man disaccharide bound to domain B.[5] […] A low-affinity binding site was exposed and calculated to bind ManNAc with micromolar concentrations of CV-N and CVN2 (Figure S1A and Figure 1B). […]
(ITC needs no label: the signal is the heat of the interaction.)

Assay [2] has as its target T2, mutant E41T dimer (Nostoc ellipsosporum, UniProt P81180, E41T).
T2 construct: His-tag
The experiment in a line: Isothermal titration calorimetry, mutant E41T dimer with ManNAc in the cell, PBS pH 7.4, 298 K, calculated with N = 2. It is filed as binding. As to the method:
(§1) Calorimetric titrations were carried out using an ITC200 device (Malvern Panalytical, Malvern, UK). The concentration of mutant E41T dimer and monomeric variants CVN-E41T or CVN-E41A was 200 μM titrant of these proteins to the ligands ManNAc and GlcNAc in the cell. […] The protein concentrations were 44 μM (304 μM) CVN2L0 and 465 μM CVN-E41T in the ManNAc experiments, respectively, and determined to be between 200 and 300 μM for the GlcNAc experiment. Aliquots (2 μL) of CV-N titrant were injected at 2 min intervals into the sugar solution in the calorimetry cell with a total of 19 injections from a stirring syringe (operated at 750 rpm). […] The values for enthalpy, binding affinity, and stoichiometry from the binding curve and the free energy and entropy of interaction were calculated using Microcal Origin v7.0 (OriginLab, Northampton, Massachusetts, USA) according to the standard expressions: ΔG = −RTln Ka, and ΔG = ΔH–TΔS.
In comparison, CV-N binding to GlcNAc, the N-linked glycan unit in N-glycosylation sites that is also part of bacterial cell walls with beta-linked bonds to N-acetylmuramic acid (MurNAc), was rather unspecific and measured in the micromolar range (Figure S1B).
Figure S1. […] Calculated energies of interaction, affinities, and stoichiometry for CV-N binding and […]
model. (F) Mutant E41T dimer binding to ManNAc is calculated based on N=2, ligand in the cell analysis. […]

Assay [3] addresses T3, CVN-E41T (Nostoc ellipsosporum, UniProt P81180, E41T).
T3 construct: His-tag
Briefly: Isothermal titration calorimetry, monomeric CVN-E41T titrated into 6 uM GlcNAc in the cell, PBS pH 7.4, 298 K, one-set of sites model, single biological replicates. Format: binding. The settings on record: n = 1; read-out: Affinity Kd. How it is done: as §1
(§2) The lectin interaction with peptide residues was enhanced or reduced by replacing a single, or two, disulfide bond(s) by ionic residue pairs (Glu and Arg) at positions E58 and R73 in CVN2, resulting in binding of dimannosylated peptide (DM) by double-mutant C58E-C73R (CVN2L0-V5) (Figure S2C) with high polar interactions.[12] […] The binding stoichiometry was calculated from a simplex fit. […]

The target in assay [4] is T2, mutant E41T dimer. Briefly: Isothermal titration calorimetry, protein titrated into GlcNAc in the cell, PBS pH 7.4, 298 K, one-set of sites model. Format: binding. The settings on record: SEM, n = 3; read-out: affinity Kd. How it is done: (§3) Calorimetric titrations were carried out using an ITC200 device (Malvern Panalytical, Malvern, UK). The concentration of mutant E41T dimer and monomeric variants CVN-E41T or CVN-E41A was 200 μM titrant of these proteins to the ligands ManNAc and GlcNAc in the cell. […] The protein concentrations were 44 μM (304 μM) CVN2L0 and 465 μM CVN-E41T in the ManNAc experiments, respectively, and determined to be between 200 and 300 μM for the GlcNAc experiment. Aliquots (2 μL) of CV-N titrant were injected at 2 min intervals into the sugar solution in the calorimetry cell with a total of 19 injections from a stirring syringe (operated at 750 rpm). Controls were prepared with identical amounts of titrant injected into PBS buffer at pH 7.4 at 298 K, and control values were subtracted from the results of the actual experiments. The values for enthalpy, binding affinity, and stoichiometry from the binding curve and the free energy and entropy of interaction were calculated using Microcal Origin v7.0 (OriginLab, Northampton, Massachusetts, USA) according to the standard expressions: ΔG = −RTln Ka, and ΔG = ΔH–TΔS.
(§4) Figure 2 ITC data showing the binding of CVN2, mutant E41T dimer, and CVN-E41A to GlcNAc. (A) Schematic representation of monomeric CVN-E41A and dimeric CVN2 binding to GlcNAc. (B) Binding affinity of CVN2 to GlcNAc. Thermogram is shown, and the binding curve fitted to the one-set of sites model. (C) Mutant E41T dimer binds to GlcNAc. Thermogram is shown, and binding analyzed based on one-set of sites binding model. T = 298 K. Ligand in cell. […] Thermogram is shown, and binding analyzed based on one-set of sites binding model. […]
as §2

In assay [5] the target is T4, CVN-E41A (Nostoc ellipsosporum, UniProt P81180, E41A).
T4 construct: monomeric variant; His-tag
The description is as above. Format: binding. As to conditions: SEM, n = 3; read-out: affinity Kd. As to the method: as §3, §4, §2

Assay [6] concerns the target T1, CVN2 (CVN2L0). Described as above. Format: binding. The settings on record: SEM, n = 3; read-out: affinity Kd. As to the method:
as §3, §4, §2

Assay [7] can be described thus: STD-NMR interaction with GlcNAc. As to conditions: protein 100 μM, carbohydrate/CV-N = 10:1, T = 298 K. It is filed as binding. As to the method: (§5) NMR experiments were performed using a Bruker 600 MHz spectrometer, and STD spectra were obtained with −0.05 ppm as irradiation frequency and 2.94 s of saturation time. An NMR sample of CV-N, its mutant, and dimer were prepared in 100 mM PBS, pH 7.0, each added to the carbohydrate solutions in phosphate buffer for a final protein concentration of 100 μM and a ratio of carbohydrate/CV-N = 10:1.

Assay [8] can be described thus: STD-NMR interaction with ManNAc. It is filed as binding. The settings on record: protein 100 μM, carbohydrate/CV-N = 10:1, T = 298 K. How it is done:
as §5

For assay [9] the following is noted: cited from earlier work.
Assay [10] in a line: ITC binding of CV-N, CVN2 and variants to ManNAc. The settings on record: for Kd: two-sets of sites model. How it is done:
as §3

Assay [11] is described as follows: ITC binding of CVN2 to dimannosylated peptide (DM). The settings on record: one-set of sites model, T=298K, Figure S2D.

“And” between values parts separate entries of the source, which are not always exact repeats. Identical values can stand only once. Like-named read-outs stand apart in the source and are kept apart here.

Consider `CC(=O)N[C@@H]1C(O)O[C@H](CO)[C@@H](O)[C@@H]1O` (stereo partly drawn) [ManNAc, N-acetylmannosamine], for which the Kd in assay [1] was 1400 ± 139 nM; in assay [2], 110 µM.
Turning to `CC(=O)N[C@H]1C(O)O[C@H](CO)[C@@H](O)[C@@H]1O` (stereo partly drawn) [GlcNAc, N-acetyl-D-glucosamine], the Kd in assay [3] is 728 nM and 397 nM and 418 nM; in assay [4] it was 5.89 ± 0.32 µM; in assay [5], 2500 ± 2000 nM; in assay [6] it was 852 ± 235 nM.

B1: Cyanovirin-N (protein, UniProt P81180 1-101, looked up)
Cyanovirin-N: LGKFSQTCYNSAIQGSVLTSTCERTNGGYNTSSIDLNSVIENVDGSLKWQPSNFIETCRNTQLAGSSELAAECKTRAQQFVSTKINLDDHIANIDGTLKYE
For B1, in assay [7], the “STD-NMR interaction with GlcNAc” value is recorded as “interaction”. In addition, the “STD-NMR interaction with ManNAc” value in [8] is reported as “hydrogen bonding”. Moreover, the Kd is roughly 140 nM in [9] (deeper high-affinity binding pocket, read-out: equilibrium Kd) and 1500 nM in assay [9] (domain A (low-affinity site), read-out: Kd).

B2: CVN2: tandem-linked dimeric CVN2 with zero-linker length; tandem repeat of two CV-N molecules (protein, UniProt P81180 1-101, looked up)
Cyanovirin-N: LGKFSQTCYNSAIQGSVLTSTCERTNGGYNTSSIDLNSVIENVDGSLKWQPSNFIETCRNTQLAGSSELAAECKTRAQQFVSTKINLDDHIANIDGTLKYE
modifications: tandem repeat dimer, zero linker
notes: tandem-linked dimeric CVN2 with zero-linker length; tandem repeat of two CV-N molecules
B2: the “STD-NMR interaction with GlcNAc” value in assay [7] was “interaction”. Moreover, the Kd in [10] (site 2, read-out: KD2) is 0.0026 µM; in assay [11], 3.94 µM.

B3: CVN-E41T: CV-N binding-site variant with single-point mutation E41T, generated by alanine to threonine substitution (protein, UniProt P81180 1-101, looked up, variant E41T)
Cyanovirin-N: LGKFSQTCYNSAIQGSVLTSTCERTNGGYNTSSIDLNSVITNVDGSLKWQPSNFIETCRNTQLAGSSELAAECKTRAQQFVSTKINLDDHIANIDGTLKYE
Regarding B3, the “STD-NMR interaction with GlcNAc” value in assay [7] was “interaction”. In addition, the “STD-NMR interaction with ManNAc” value in [8] is on record as “hydrogen bonding”. The “binding to ManNAc (ITC)” value in assay [10] (one-set of sites model, Figure S3A) is listed as “no binding”. In addition, the Kd in assay [10] (site 1, read-out: KD1) turned out to be 712 µM; in assay [10] (site 2, read-out: KD2), 17.6 µM.
